{"source": "paper PMC7048138", "binders": {"B1": {"name": "mCherryFP-TgDCX (full-length wild-type TgDCX, mCherryFP at the N-terminus) (natural protein)", "chain": "MACGIPWKLARRDELMATRQAERPGEYFPPPYPPCPPTVVTPLRTSAYDFPEATFVTRPCLPAKKATGHKNVFERLTDTAYYTGSHRERFDEFGNGRGIAGREYLYAYDGLTESPSRCHEVYSSVIKRPRKPVVTPGTLGIQRFGVQIPAPRLMWLYRNGDKHDDGTPFFVRPYIKSMESLYQQITKEITPIAGPVRRIFDQNFRVITDLDDIVDGAKYLCTSGEPPAAYDRLEKFLSEWVIQKSQTKVPSQFFVV"}}, "target": "microtubules of Xenopus S3 cells stably expressing EGFP-α-tubulin (Xenopus laevis (endogenous in S3 cells); cDNA of the EGFP-tagged copy not stated | Xenopus laevis (endogenous in S3 cells))", "test": "fluorescence molecule counting on microtubules in cells"}
{"binder": "B1", "values": [{"measurement": "DCX molecules per micron (short, smoothly curved microtubule arcs) (molecules per micron)", "value": 4850}, {"measurement": "TgDCX molecules per micron of fiber length (\"flexible\" microtubules) (molecules per micron)", "value": 1460}, {"measurement": "stoichiometry N (TgDCX molecules per tubulin dimer)", "value": 0.9}]}
